This is an account of results in paper PMC5870375, “Amyloid-beta modulates microglial responses by binding to the triggering receptor expressed on myeloid cells 2 (TREM2)” (Molecular Neurodegeneration, 2018).

In this assay the target is T1, oligomeric amyloid-β 1–42 (UniProt P05067 672-713).
T1 construct: amyloid-beta 1-42, cut product of the amyloid precursor protein (APP); numbers count on: the Aβ peptide; Heterogeneous mixture of low-n and high-n oligomers, prepared without separation of monomeric Aβ; also called oAβ_(1–42); oAβ; source: synthetic peptide, bought: AnaSpec (AS-20276); oligomers made by incubation at 22 °C for 16 h, then 4 °C for 24 h, supernatant after 16,000×g
The assay is described as follows: ELISA; solid phase binding assay: 96-well plate coated with 100 nM oAβ1-42 in PBS overnight at 4 °C, blocked with 4% BSA; purified Fc or sTREM2-Fc proteins in PBST with 0.5% BSA, 30 min at 37 °C; detected with biotinylated anti-Fc antibody, avidin-HRP, TMB, read at 620 nm. To be noted: both partners purified. Background: ELISA stands for enzyme-linked immunosorbent assay.

B1: sTREM2-Fc fragment carrying residues 1–91 (Fc fusion, human, UniProt Q9NZC2 19-91, looked up)
chain: HNTTVFQGVAGQSLQVSCPYDSMKHWGRRKAWCRQLGEKGPCQRVVSTHNLWLLSFLRRWNGSTAITDDTLGG
notes: signal peptide in the construct; human TREM2, C-terminally truncated extracellular domain, residues 1-91
Take B1: the binding result is “binds”.

B2: sTREM2-Fc fragment carrying residues 1–111 (Fc fusion, human, UniProt Q9NZC2 19-111, looked up)
chain: HNTTVFQGVAGQSLQVSCPYDSMKHWGRRKAWCRQLGEKGPCQRVVSTHNLWLLSFLRRWNGSTAITDDTLGGTLTITLRNLQPHDAGLYQCQ
notes: signal peptide in the construct
Regarding B2, the binding result is reported as “binds”.

B3: sTREM2-Fc fragment carrying residues 1–131 (Fc fusion, human, UniProt Q9NZC2 19-131, looked up)
chain: HNTTVFQGVAGQSLQVSCPYDSMKHWGRRKAWCRQLGEKGPCQRVVSTHNLWLLSFLRRWNGSTAITDDTLGGTLTITLRNLQPHDAGLYQCQSLHGSEADTLRKVLVEVLAD
notes: as for B2
As for B3, the binding result is “binds”.

B4: sTREM2-Fc fragment carrying residues 1–151 (Fc fusion, human, UniProt Q9NZC2 19-151, looked up)
chain: HNTTVFQGVAGQSLQVSCPYDSMKHWGRRKAWCRQLGEKGPCQRVVSTHNLWLLSFLRRWNGSTAITDDTLGGTLTITLRNLQPHDAGLYQCQSLHGSEADTLRKVLVEVLADPLDHRDAGDLWFPGESESFE
notes: signal peptide in the construct; human TREM2, C-terminally truncated extracellular domain, residues 1-151
Regarding B4, the binding result is given as “binds”.

B5: sTREM2-Fc fragment carrying residues 1–51 (Fc fusion, human, UniProt Q9NZC2 19-51, looked up)
chain: HNTTVFQGVAGQSLQVSCPYDSMKHWGRRKAWC
notes: signal peptide in the construct; human TREM2, C-terminally truncated extracellular domain, residues 1-51
As for B5, the binding result was “binds”.

B6: sTREM2-Fc fragment carrying residues 1–71 (Fc fusion, human, UniProt Q9NZC2 19-71, looked up)
chain: HNTTVFQGVAGQSLQVSCPYDSMKHWGRRKAWCRQLGEKGPCQRVVSTHNLWL
notes: signal peptide in the construct; human TREM2, C-terminally truncated extracellular domain, residues 1-71
Turning to B6, the binding result is reported as “binds”.
